Experimental data reported in paper PMC6880778.

How the values were obtained:
[1] = target: ecto-PfGAMA (N25-G715) (P. falciparum); test: SPR; Biacore X100, CM5 chip; PfGAMA as ligand, analyte in single-cycle kinetics at 0.16, 0.8, 4, 20 and 100 nM; global fit to a 1:1 binding model
[2] = target: recombinant ecto-PfGAMA (N25-G715) (P. falciparum)
[3] = target: recombinant ecto-PfGAMA (N25-G715) (P. falciparum); test: SPR; Biacore X100, CM5 chip; recombinant PfGAMA as ligand, PfMSP10 protein as analyte; single-cycle kinetics at 0.16, 0.8, 4, 20 and 100 nM; global fitting in a 1:1 binding model

Row | Molecule | Kd [1] | koff [1] | kon [1] | GIA activity (growth inhibition of cultured P. falciparum parasites) of 20 mg/ml rabbit antibodies raised against PfMSP10 R1 [2] | Kd [3]
1 | ecto-PfMSP10 (D29-Q507) (domain or fragment) | 99.7 nM | 0.0015 s⁻¹ | 15000 M⁻¹ s⁻¹ | – | –
2 | PfMSP10 R1 (D29-N188) (domain or fragment) | 648 nM | 0.000355 s⁻¹ | 548 M⁻¹ s⁻¹ | – | –
3 | PfMSP10 region 1 (R1, D29-N188) (domain or fragment) DDIKNTSQKKITYDKYNKNKENMNNEKNDNKDNKDNIYNDNINNDNINNDNINNEDEYKFLSMKHYKDSLSNKLNNENDHMNYLIRKRKDNTQGSQHFNENIENNENVENNENIENNENNENIENIENNENNENNENIENNENNENNENSSIMNSESYNN | – | – | – | 11% | 650 nM
4 | recombinant ecto-PfMSP10 (D29-Q507) (domain or fragment) DDIKNTSQKKITYDKYNKNKENMNNEKNDNKDNKDNIYNDNINNDNINNDNINNEDEYKFLSMKHYKDSLSNKLNNENDHMNYLIRKRKDNTQGSQHFNENIENNENVENNENIENNENNENIENIENNENNENNENIENNENNENNENSSIMNSESYNNIINSNEHNEEQIKKKEEDLIEAFFPFILKKLDNESLSLDNKYDDYYNLPNDHNDTHKENSSDHNLLGYKLGNNLKSYLIEENDVSQKKTDDINESASSDSENIQEILSTDSNTSHLKERKNQKAPPGEHKPEVKNALLNSQVASPKGEDEKKSQPQHPLVNSGDQLQHPKEIDENAEKIRRTLLKESRDIKNTTAIIDETVYKFEQLIMKGRYYATAVRNFVIFKVNYICEYSKCGPNSRCYIVEKDKEQCRCRPNYIVDMSVNYFKCIPMKDMNCSKNNGGCDVNAECTIVEGAVKCQCSHLYFGDGVFCVKNSQTKQ | – | – | – | – | 100 nM
